The source of these data is patent US20250019453A1 (SYNTHEKINE, published 2025).

The Kd is the free concentration of one partner at which half of the binding sites on the other are occupied at equilibrium, for simple one-to-one binding. Lower therefore signals a tighter complex. Broadly, the koff is the first-order rate constant of dissociation. As usually defined, the kon is the rate constant with which the complex forms. Low readings indicate slow association, high ones fast association.

Substitutions are numbered along the chain they refer to.

The target of experiment [1] is T1, mIL2Rg ECD antigen (murine, UniProt P34902 23-263).
T1 construct: The immunogen was the ECD fused to human IgG1 hinge and Fc; also called ECD of IL2Rg (mouse)
T1 sequence: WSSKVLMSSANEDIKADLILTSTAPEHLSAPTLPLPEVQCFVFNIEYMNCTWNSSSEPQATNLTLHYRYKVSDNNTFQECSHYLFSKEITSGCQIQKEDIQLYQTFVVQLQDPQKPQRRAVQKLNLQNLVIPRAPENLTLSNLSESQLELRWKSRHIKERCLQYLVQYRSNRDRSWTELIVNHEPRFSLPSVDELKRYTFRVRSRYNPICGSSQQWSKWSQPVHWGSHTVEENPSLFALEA
Nature of the experiment: PE-ELISA of phage clones. On the technique in general: ELISA stands for enzyme-linked immunosorbent assay.

Experiment [2] deals with T2, hIL2Rg ECD antigen (human, UniProt P31785 23-262).
T2 construct: The immunogen was the ECD fused to human IgG1 hinge and Fc; also called ECD of IL2Rg (human); human IL-2Rγ
T2 sequence: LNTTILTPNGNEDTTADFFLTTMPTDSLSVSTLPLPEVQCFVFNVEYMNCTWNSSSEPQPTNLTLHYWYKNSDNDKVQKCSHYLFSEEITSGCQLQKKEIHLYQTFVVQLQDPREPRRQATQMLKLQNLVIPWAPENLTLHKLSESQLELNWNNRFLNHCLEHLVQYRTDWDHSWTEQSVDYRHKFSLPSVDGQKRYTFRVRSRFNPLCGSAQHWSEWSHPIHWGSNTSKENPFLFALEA
Nature of the experiment: PE-ELISA of phage clones.

The target of experiment [3] is T3, hIL2Rb-his (human, UniProt P14784 27-240).
T3 sequence: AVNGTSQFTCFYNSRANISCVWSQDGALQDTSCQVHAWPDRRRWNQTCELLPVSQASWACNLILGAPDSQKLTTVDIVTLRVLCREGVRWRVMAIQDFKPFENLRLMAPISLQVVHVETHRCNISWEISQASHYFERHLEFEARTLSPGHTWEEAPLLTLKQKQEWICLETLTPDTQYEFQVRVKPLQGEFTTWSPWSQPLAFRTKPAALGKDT
As to the kind of experiment: SPR; ratio of experimental to calculated Rmax. How it is done:
(§1) A representative example from each hIL2Rb VHH clonotype generated as descried above was selected for evaluation of binding via SPR as follows. Evaluation of binding affinity of the hIL2Rb binding molecules shown in Table 16 was conducted using surface plasmon resonance (SPR) in substantial accordance with the following procedure. All experiments were conducted in 10 mM Hepes, 150 mM NaCl, 0.05% (v/v) Polysorbate 20 (PS20) and 3 mM EDTA (HBS-EP+ buffer) on a Biacore T200 instrument equipped with a Protein A derivatized sensor chip (Cytiva). Mono-Fc VHH ligands were flowed at 5 μl/min for variable time ranging from 18 to 300 seconds, reaching the capture loads listed in the tables below. Following ligand capture, injections of a 2-fold dilution series of the extracellular domain of the IL2Rb-receptor modified to incorporate a C-terminal poly-His sequence, typically comprising at least five concentrations between 1 μM and 1 nM, were performed in either high performance or single cycle kinetics mode. Surface regeneration was achieved by flowing 10 mM glycine-HCl, pH 1.5 (60 seconds, […]). Buffer-subtracted sensograms were processed with Biacore T200 Evaluation Software and globally fit with a 1:1 Langmuir binding model (bulk shift set to zero) to extract kinetics and affinity constants (kₐ, kd, KD). RMAX<100 RU indicates surface density compatible with kinetics analysis. Calculated Rₘₐₓ values were generated using the equation: Rmax=Load (RU)×valency of ligand×(Molecular weight of analyte/Molecular weight of ligand). Surface activity was defined as the ratio of experimental/calculated Rmax.

For experiment [4], the target named is T3, hIL2Rb-his. As to the kind of experiment: SPR Biacore T200; Mono-Fc VHH captured on Protein A chip, hIL2Rb-his analyte; 1:1 Langmuir fit. How it is done: as §1
(Surface plasmon resonance follows binding to a sensor surface in real time, without labels.)

B1: mIL2Rg_VHH3 (VHH)
VHH: QVQLQESGGGSVQAGASLRLSCSVSGFTFDESVMSWLRQGPGNECDAVAIISSDDNTYYDDSVKGRFTISEDNAKNMVYLQMNSLKPEDTAVYYCAARRRRPVYDSDYELRPRPLCGDFGVWGQGTQVTVSS
notes: As a his-tagged phage clone periplasmic extract
As for B1, in experiment [1], the binding result was “binds”.

B2: hIL2Rg_VHH-5 (VHH)
VHH: QVQLQESGGGSVQAGGSLRLSCAASGFSFSSYPMTWARQAPGKGLEWVSTIASDGGSTAYAASVEGRFTISRDNAKSTLYLQLNSLKTEDTAMYYCTKGYGDGTPAPGQGTQVTVSS
notes: as for B1
As to B2, the binding result in experiment [2] was “binds”.

B3: hIL2Rg_VHH-18 (VHH)
VHH: B2 VHH with S11L, A14P, S28T
notes: as for B1
In the case of B3, the binding result in experiment [2] is recorded as “binds”.

B4: mIL2Rg_VHH6 (VHH)
VHH: QVQLQESGGGSVQAGGSLRLSCATSGFPYSRYCMGWFRQAPGKEREGVAAIEPDGSTSYADSVKGRFTISQDNAVNTLYLQMNNLKPEDTAMYYCAADERCFYLKDYDLRRPAQYRYWGQGTQVTVSS
notes: as for B1
B4: the binding result in experiment [1] is “binds”.

B5: hIL2Rg_VHH-17 (VHH)
VHH: QVQLQESGGGLVQPGGSLRLSCAASGFTFSNAHMSWVRQAPGKGREWISSIYSGGSTWYADSVKGRFTISRDNSKNTLYLQLNSLKTEDTAMYYCAENRLHYYSDDDSLRGQGTQVTVSS
notes: as for B1
On to B5, for which the binding result in experiment [2] is “binds”.

B6: hIL2Rg_VHH-11 (VHH)
VHH: B5 VHH with L11S, P14A, N31S, S49A, S56G, W58F, S74A, E97T
notes: as for B1
In the case of B6, the binding result in experiment [2] is reported as “binds”.

B7: hIL2Rg_VHH-16 (VHH)
VHH: B5 VHH with A23V
notes: as for B1
In the case of B7, the binding result in experiment [2] was “binds”.

B8: hIL2Rg_VHH-6 (VHH)
VHH: B5 VHH with L11A, P14A
notes: as for B1
Turning to B8, the binding result in experiment [2] was “binds”.

B9: hIL2Rg_VHH-12 (VHH)
VHH: B5 VHH with L11S, P14A
notes: as for B1
As for B9, the binding result in experiment [2] is “binds”.

B10: hIL2Rg_VHH-4 (VHH)
VHH: QVQLQESGGGSVQAGGSLRLSCTASGFTFDDSDMGWYRQAPGNECELVSTISSDGNTYYTDSVKGRFTISQDNAKNTVYLQMNSLGPEDTAVYYCAAEPRGYYSNYGGRRECNYWGQGTQVTVSS
notes: as for B1
For the molecule B10, in experiment [2], the binding result is listed as “binds”.

B11: hIL2Rg_VHH-13 (VHH)
VHH: B10 VHH with G26R, T28I, N56S, T60A, Q71R, G86K
notes: as for B1
For the molecule B11, in experiment [2], the binding result was “binds”.

B12: mIL2Rg_VHH7 (VHH)
VHH: QVQLQESGGGLVQPGGSLRLSCTVSGFTFDESDMGWLRQNPGNECGVVSVITSDDNPYYDDSVKGRFTISEDNAKNMVYLQMNSLKPEDTGVYYCATRSRQPVYSRDYELRPRPLCGDFGVWGQGTQVTVSS
notes: as for B1
As for B12, the binding result in experiment [1] is given as “binds”.

B13: hIL2Rg_VHH-9 (VHH)
VHH: QVQLQESGGGSVQAGGSLRLSCTASGFTFDDSDMGWYRQAPGGECELVTISSDGSTYYADSVKGRFTISQDNAKNTVYLQMNSLKPEDTAVYYCAAEPRGYYSNYGGRRECNYWGQGTQVTVSS
notes: as for B1
As for B13, the binding result in experiment [2] is listed as “binds”.

B14: hIL2Rg_VHH-14 (VHH)
VHH: B13 VHH with R19K, A24V, F29A, A40G, G43N
notes: as for B1
For B14, in experiment [2], the binding result is “binds”.

B15: mIL2Rg_VHH4 (VHH)
VHH: QVQLQESGGGSVQAGGSLRLSCIGSGLPFDEDDMGWYRQAPGNECELVSSISSDGTAYYADSVKGRFTISRDNAKNTVLLQMNSLKPEDTAVYYCAAGVHRQFGGSSSCGDAFYGMDYWGKGTQVTVSS
notes: as for B1
Consider B15, for which the binding result in experiment [1] is recorded as “binds”.

B16: mIL2Rg_VHH12 (VHH)
VHH: QVQLQESGGGSVLAGGSLRLSCVASGYGYNYIGWFRQTPGKEREGVAVIYIGGGDTYYADSVKGRFTASRDNAKSTLYLQMNSLEPEDTAMYYCVARYCVGSVYACLRGGHDEYAHWGQGTQVTVSS
notes: as for B1
Turning to B16, the binding result in experiment [1] is on record as “binds”.

B17: mIL2Rg_VHH13 (VHH)
VHH: B16 VHH with I51T
notes: as for B1
Turning to B17, in experiment [1], the binding result is recorded as “binds”.

B18: mIL2Rg_VHH9 (VHH)
VHH: QVQLQESGGGSVQAGGSLRLSCAASGFTFDDFDMGWYRQAPGNECELVSTISDDGSTYYADSVKGRSSISRDNAKNTVYLQMNSLKPEDTAVYYCAAEGALGSKTNCGWVGNFGYWGQGTQVTVSS
notes: as for B1
Take B18: the binding result in experiment [1] is given as “binds”.

B19: mIL2Rg_VHH8 (VHH)
VHH: B18 VHH with A23T, S84R, A91G
notes: as for B1
For B19, the binding result in experiment [1] is given as “binds”.

B20: mIL2Rg_VHH10 (VHH)
VHH: B18 VHH with S11L, A14P, N76S, S84R, A91G
notes: as for B1
In the case of B20, in experiment [1], the binding result is “binds”.

B21: mIL2Rg_VHH15 (VHH)
VHH: B18 VHH with A23T, S84R, A91G, T105M
notes: as for B1
As for B21, the binding result in experiment [1] is recorded as “binds”.

B22: mIL2Rg_VHH11 (VHH)
VHH: B18 VHH with S11L, A14P, R19K, D30S, F32R, L47R
notes: as for B1
Turning to B22, the binding result in experiment [1] is given as “binds”.

B23: mIL2Rg_VHH14 (VHH)
VHH: B18 VHH with D61N, T77M
notes: as for B1
With B23, the binding result in experiment [1] is reported as “binds”.

B24: hIL2Rb_VHH1 Mono-Fc VHH (Fc fusion, not shown: a dimerising Fc or GST)
chain: QVQLQESGGGSVQAGGSLRLSCVGSGYTYDTSDMSWYRQAPGKEREFVSDIDSGDWAAYADAVKGRFTISRDNAKKTVYLQMNSLEPEDTAMYYCKASYWKWGKLNNFWGPGTQVTVSS
On to B24, for which the “Surface Activity” value in experiment [3] is 37%. In experiment [4], the affinity, expressed as Kd, was 1 nM; the off-rate (koff) stood at 0.0199 s⁻¹; the association rate constant (kon) worked out at 1.98e+07 M⁻¹ s⁻¹.

B25: hIL2Rb_VHH8 Mono-Fc VHH (Fc fusion, not shown: a dimerising Fc or GST)
chain: QVQLQESGGGSVQVGGSLKLSCAASGYTYSSYYCMGWFRQAPGKEREGVAAIDSDGSTSYADSVKGRFTISQDDAKNTLYLQMNSLKPEDTAMYYCAASYEVVDCYPSGYGQDYWGKGTQVTVSS
Take B25: in experiment [3], the Surface Activity is less than 5%.

B26: hIL2Rg_VHH-10 (VHH)
VHH: QVQLQESGGGSVQAGGSLRLSCAASGSIYSSAYIGWFRQAPGKKREGVAGIYTRDGSTAYADSVKGRFTISQDSAKKTVYLQMNSLKPEDTAMYYCAAGRRTKSYVYIFRPEEYNYWGQGTQVTVSS
notes: as for B1
As to B26, in experiment [2], the binding result was “binds”.

B27: mIL2Rg_VHH2 (VHH)
VHH: QVQLQESGGGSVQPGGSLRLSCAASGSTYANYLMGWFRQAPGKEREGVAAIYSGGGSTYYADSVKGRFTISQDNAKNTLYLQMNSLKPEDTAMYYCAAASAVKGDKGDIVVVVTGTQRMEYDYWGHGTQVTVSS
notes: as for B1
B27: in experiment [1], the binding result is on record as “binds”.

B28: mIL2Rg_VHH5 (VHH)
VHH: QVQLQESGGGSVQAGGSLRLSCVASGDVYGRNSMAWFRQAPGKEREGVAVGYSVVTTTYYADSVKGRFTISEDNDKNTVYLEMNSLKPEDTAMYYCAADGNLWRGLRPSEYTYWGQGTQVTVSS
notes: as for B1
Take B28: the binding result in experiment [1] is “binds”.
